Source: PMC12756740, “A GH42 β‑Galactosidase from the Human Isolate Bifidobacterium breve DSM 20213: Biochemical and Transgalactosylation Properties Reveal the Potential for Galacto-oligosaccharides Synthesis” (ACS Omega, 2025)

Substrate: O=[N+]([O-])c1ccccc1O[C@@H]1O[C@H](CO)[C@H](O)[C@H](O)[C@H]1O
Experiment: purified protein
Format: biochemical, Bifidobacterium breve
Conditions: 50 mM sodium phosphate pH 6.5, 30 °C, 0.01-22 mM oNPG

B1: Bbreβgal-III (Bifidobacterium breve DSM 20213 = JCM 1192) (protein)
chain: MEHREFKWPQPLAGGKPRIWYGGDYNPDQWPEEVWDEDVALMQKAGVNLVSVAIFSWAKLEPEEGVYDFDWLDRVIDKLGKAGIAVDLASGTASPPMWMTQAHPEILWVDYRGDVCQPGARQHWRATSPVFLDYALNLCRKMAEHYKDNPYVVSWHVSNEYGCHNRFDYSEDAERAFQKWCEKKYGTIDAVNDAWGTAFWAQRMNNFSEIIPPRFIGDGNFMNPGKLLDWKRFSSDALLDFYKAERDALLEIAPKPQTTNFMVSAGGAGIDYDKWGYDVDFVSNDHYFTPGEAHFDELAYSASLCDGIARKNPWFLMEHSSSAVNWRPINYRVEPGELVRDSLAHLAMGSDAICYFQWRQSKAGAEKWHSSMVPHAGPDSQIFRDVCELGADLNKLADEGLLSTKLVKSKVAVVFDYESQWATEHTATPTQEVRHWTEPLAWFRALADNGLTADVVPVRGPWDEYEAVVLPSLTILSEETTRRVREYVANGGKLFVTYYTGLVDDKDHVWLGGYPGSIRDVVGVRVEEFAPMGNDFPGAIDHLDLDNGTVAHDFADVITSVADTAHVVAAFKADKWTGFDGAPAITVNDFGDGKAAYIGARLGREGLAKSLPALLEELGIETSAEDDRGEVLRVERADETGENHFVFLFNRTHDVAIVDVDGEPLVASLAQVNESEHTAAIQPNGVLVVKL
notes: pET21a(+) NdeI/NotI, His-tagged, E. coli BL21 Star (DE3), IMAC purified
Protein B1 has a Km of 1.57 ± 0.16 mM, a Vmax of 3650 µmol/min/mg and a kcat of 4690 ± 260 s⁻¹. For the same protein, the kcat/Km was 2.99e+06 ± 140000 M⁻¹ s⁻¹.
